# B1: full-length human 5,10-methylenetetrahydrofolate reductase (MTHFRFL aa 1-656) (enzyme)
# chain: not shown
# modifications: multiply phosphorylated during its recombinant expression (N-terminal Ser/Thr-rich region; sites not given)
# notes: human 5,10-methylenetetrahydrofolate reductase (MTHFR), full-length, aa 1-656, wild type; Homodimer; also called MTHFRFL^SAM; MTHFRFL^(SAH (symm)); source: baculovirus/insect cell system, SF9 cells, purified (Ni-NTA, Superdex 200 size exclusion); flag/His10 tag removed with TEV protease; not shown: FLAG, C-terminal, cleaved; His10, C-terminal, cleaved
# Molecular target: the molecule itself
# Assay: negative stain EM; TEV-cleaved purified MTHFRFL, 50 nM in 20 mM HEPES pH 7.5, 200 mM NaCl with 5 mM SAM or 2.6 mM SAH; 2D classes
protein,measurement,value
B1,binding result,binds
